According to patent publication US20050118719A1:

Molecular target: temperature sensitive C1 repressor polypeptide from thermoinducible bacteriophage P1Cm carrying the c1.100 mutation (bacteriophage P1)
Assay: cell-based or functional assay

## Coi polypeptide (C1 inactivator polypeptide) from bacteriophage P1
  Basal activity (31° C.), Miller units; β-Gal from Op72lacZcoi reporter in K. pneumoniae: 36.4 Miller units
  Fold-induction; β-Gal from Op72lacZcoi reporter in K. pneumoniae: 19 fold
  Induced activity (42° C.), Miller units; β-Gal from Op72lacZcoi reporter in K. pneumoniae: 698 Miller units
